Series [1] has as its target T1, influenza A virus RNA polymerase (RNAP; PB1-PB2-PA) (Influenza A virus A/NorthernTerritories/60/68 (H3N2)) (UniProt Q910D6+Q91MB1+P03433). Put plainly: smFRET titration.
Series [2] has as its target T1, influenza A virus RNA polymerase (RNAP; PB1-PB2-PA) (Influenza A virus A/NorthernTerritories/60/68 (H3N2)). Put plainly: fluorescence anisotropy. Background: Polarisation of emitted light reports the rotation of a fluorescent probe.

pKd: −log10 of the molar value.

“AGCGAAAGCAGGAGUUU / UAAACUCCUUGUUUCUACU [cRNA promoter 5U17/3U4]”: the negative-log Kd (pKd) in series [1] was 7.89. AGCGAAAGCAGGAGUUU [5' cRNA]: in series [2], the pKd was 7.36. In series [2], UAAACUCCUUGUUUCUACU [3' cRNA] gave a pKd of less than 6.00.

Usually pKd stands for −log10 of the Kd, conventionally taken in molar units. Low values mean a high Kd, high ones a low Kd.

For the origin of these results see publication PMC5137447.
